For 36 variants, abundance fitness results are on record in the Human Domainome abundance scans (Beltran et al. 2025).

± gives the uncertainty stated by the source.

Sequences and labels used below:
B1: COUP transcription factor 1, residues 83 to 159; numbered along this chain, P10589 (parent)
chain: HIECVVCGDKSSGKHYGQFTCEGCKSFFKRSVRRNLTYTCRANRNCPIDQHHRNQCQYCRLKKCLKVGMRREAVQRG

The variants in this series derive from B1. As to the kind of experiment: abundance fitness (aPCA) (normalised: wild type 0, dead -1); higher = more abundant; growth selection in yeast, the domain comes from the species named. Conditions: Homo sapiens.
As to HIECVVCGDKSSGKHYGQFTCEGCKSFFKRSVRRNLTYTCRANRMCPIDQHHRNQCQYCRLKKCLKVGMRREAVQRG, the abundance fitness is -0.245 ± 0.38.
In the case of HIECVVCGDKSSGKHYGQFTCEGCKSFFKRSVRRNLTYTCRANRPCPIDQHHRNQCQYCRLKKCLKVGMRREAVQRG, the abundance fitness came out at 0.015 ± 0.16.
For HIECVVCGDKSSGKHYGQFTCEGCKSFFKRSVRRNLTYTCRANRCCPIDQHHRNQCQYCRLKKCLKVGMRREAVQRG, the abundance fitness is -0.202 ± 0.16.
For the variant HIECVVCGDKSSGKHYGQFTCEGCKSFFKRSVRRNLTYTCRANRRCPIDQHHRNQCQYCRLKKCLKVGMRREAVQRG, the abundance fitness was determined as 0.067 ± 0.05.
Consider HIECVVCGDKSSGKHYGQFTCEGCKSFFKRSVRRNLTYTCRANRGCPIDQHHRNQCQYCRLKKCLKVGMRREAVQRG, for which the abundance fitness is -0.004 ± 0.045.
In the case of HIECVVCGDKSSGKHYGQFTCEGCKSFFKRSVRRNLTYTCRANRECPIDQHHRNQCQYCRLKKCLKVGMRREAVQRG, the abundance fitness was -0.025 ± 0.072.
Turning to HIECVVCGDKSSGKHYGQFTCEGCKSFFKRSVRRNLTYTCRANRYCPIDQHHRNQCQYCRLKKCLKVGMRREAVQRG, the abundance fitness is -0.595 ± 0.42.
Turning to HIECVVCGDKSSGKHYGQFTCEGCKSFFKRSVRRNLTYTCRANRQCPIDQHHRNQCQYCRLKKCLKVGMRREAVQRG, the abundance fitness was 0.13 ± 0.075.
Take HIECVVCGDKSSGKHYGQFTCEGCKSFFKRSVRRNLTYTCRANRKCPIDQHHRNQCQYCRLKKCLKVGMRREAVQRG: the abundance fitness is -0.265 ± 0.2.
As to HIECVVCGDKSSGKHYGQFTCEGCKSFFKRSVRRNLTYTCRANRLCPIDQHHRNQCQYCRLKKCLKVGMRREAVQRG, the abundance fitness was -0.322 ± 0.14.
As for HIECVVCGDKSSGKHYGQFTCEGCKSFFKRSVRRNLTYTCRANRDCPIDQHHRNQCQYCRLKKCLKVGMRREAVQRG, the figure is -0.035 ± 0.12.
The same measure for HIECVVCGDKSSGKHYGQFTCEGCKSFFKRSVRRNLTYTCRANRVCPIDQHHRNQCQYCRLKKCLKVGMRREAVQRG: -0.058 ± 0.057.
The same measure for HIECVVCGDKSSGKHYGQFTCEGCKSFFKRSVRRNLTYTCRANRWCPIDQHHRNQCQYCRLKKCLKVGMRREAVQRG: -0.049 ± 0.096; for HIECVVCGDKSSGKHYGQFTCEGCKSFFKRSVRRNLTYTCRANRSCPIDQHHRNQCQYCRLKKCLKVGMRREAVQRG: 0.061 ± 0.08; for HIECVVCGDKSSGKHYGQFTCEGCKSFFKRSVRRNLTYTCRANRACPIDQHHRNQCQYCRLKKCLKVGMRREAVQRG: -0.076 ± 0.063.
On to HIECVVCGDKSSGKHYGQFTCEGCKSFFKRSVRRNLTYTCRANRHCPIDQHHRNQCQYCRLKKCLKVGMRREAVQRG, for which the abundance fitness was -0.182 ± 0.31.
The same measure for HIECVVCGDKSSGKHYGQFTCEGCKSFFKRSVRRNLTYTCRANRNLPIDQHHRNQCQYCRLKKCLKVGMRREAVQRG: -0.492 ± 0.078; for HIECVVCGDKSSGKHYGQFTCEGCKSFFKRSVRRNLTYTCRANRNQPIDQHHRNQCQYCRLKKCLKVGMRREAVQRG: -0.18 ± 0.16; for HIECVVCGDKSSGKHYGQFTCEGCKSFFKRSVRRNLTYTCRANRNKPIDQHHRNQCQYCRLKKCLKVGMRREAVQRG: -0.624 ± 0.2.
In the case of HIECVVCGDKSSGKHYGQFTCEGCKSFFKRSVRRNLTYTCRANRNAPIDQHHRNQCQYCRLKKCLKVGMRREAVQRG, the abundance fitness was -0.519 ± 0.085.
As for HIECVVCGDKSSGKHYGQFTCEGCKSFFKRSVRRNLTYTCRANRNMPIDQHHRNQCQYCRLKKCLKVGMRREAVQRG, the figure is -0.654 ± 0.15; as for HIECVVCGDKSSGKHYGQFTCEGCKSFFKRSVRRNLTYTCRANRNDPIDQHHRNQCQYCRLKKCLKVGMRREAVQRG, -0.572 ± 0.24; as for HIECVVCGDKSSGKHYGQFTCEGCKSFFKRSVRRNLTYTCRANRNEPIDQHHRNQCQYCRLKKCLKVGMRREAVQRG, -0.229 ± 0.074.
Consider HIECVVCGDKSSGKHYGQFTCEGCKSFFKRSVRRNLTYTCRANRNSPIDQHHRNQCQYCRLKKCLKVGMRREAVQRG, for which the abundance fitness was -0.604 ± 0.12.
Turning to HIECVVCGDKSSGKHYGQFTCEGCKSFFKRSVRRNLTYTCRANRNPPIDQHHRNQCQYCRLKKCLKVGMRREAVQRG, the abundance fitness is -0.587 ± 0.18.
For HIECVVCGDKSSGKHYGQFTCEGCKSFFKRSVRRNLTYTCRANRNIPIDQHHRNQCQYCRLKKCLKVGMRREAVQRG, the abundance fitness was -0.267 ± 0.2.
As for HIECVVCGDKSSGKHYGQFTCEGCKSFFKRSVRRNLTYTCRANRNRPIDQHHRNQCQYCRLKKCLKVGMRREAVQRG, the figure is -0.602 ± 0.072.
On to HIECVVCGDKSSGKHYGQFTCEGCKSFFKRSVRRNLTYTCRANRNFPIDQHHRNQCQYCRLKKCLKVGMRREAVQRG, for which the abundance fitness was -0.501 ± 0.38.
The same measure for HIECVVCGDKSSGKHYGQFTCEGCKSFFKRSVRRNLTYTCRANRNVPIDQHHRNQCQYCRLKKCLKVGMRREAVQRG: -0.433 ± 0.063; for HIECVVCGDKSSGKHYGQFTCEGCKSFFKRSVRRNLTYTCRANRNHPIDQHHRNQCQYCRLKKCLKVGMRREAVQRG: -0.536 ± 0.22; for HIECVVCGDKSSGKHYGQFTCEGCKSFFKRSVRRNLTYTCRSNRNCPIDQHHRNQCQYCRLKKCLKVGMRREAVQRG: 0.047 ± 0.084.
The same measure for HIECVVCGDKSSGKHYGQFTCEGCKSFFKRSVRRNLTYTCRVNRNCPIDQHHRNQCQYCRLKKCLKVGMRREAVQRG: 0.09 ± 0.062; for HIECVVCGDKSSGKHYGQFTCEGCKSFFKRSVRRNLTYTCRWNRNCPIDQHHRNQCQYCRLKKCLKVGMRREAVQRG: -0.123 ± 0.086; for HIECVVCGDKSSGKHYGQFTCEGCKSFFKRSVRRNLTYTCRTNRNCPIDQHHRNQCQYCRLKKCLKVGMRREAVQRG: -0.256 ± 0.15.
On to HIECVVCGDKSSGKHYGQFTCEGCKSFFKRSVRRNLTYTCRYNRNCPIDQHHRNQCQYCRLKKCLKVGMRREAVQRG, for which the abundance fitness amounted to 0.109 ± 0.22.
The same measure for HIECVVCGDKSSGKHYGQFTCEGCKSFFKRSVRRNLTYTCRRNRNCPIDQHHRNQCQYCRLKKCLKVGMRREAVQRG: -0.111 ± 0.054.
